How the values were obtained:
Assay in all cases: Kinase Profiling Assay
Format in all cases: biochemical
Conditions in all cases: 100 μM
ASK1(h) = target: T1, ASK1(h) (Homo sapiens, UniProt Q99683)
T1 sequence (Q99683 1-1374): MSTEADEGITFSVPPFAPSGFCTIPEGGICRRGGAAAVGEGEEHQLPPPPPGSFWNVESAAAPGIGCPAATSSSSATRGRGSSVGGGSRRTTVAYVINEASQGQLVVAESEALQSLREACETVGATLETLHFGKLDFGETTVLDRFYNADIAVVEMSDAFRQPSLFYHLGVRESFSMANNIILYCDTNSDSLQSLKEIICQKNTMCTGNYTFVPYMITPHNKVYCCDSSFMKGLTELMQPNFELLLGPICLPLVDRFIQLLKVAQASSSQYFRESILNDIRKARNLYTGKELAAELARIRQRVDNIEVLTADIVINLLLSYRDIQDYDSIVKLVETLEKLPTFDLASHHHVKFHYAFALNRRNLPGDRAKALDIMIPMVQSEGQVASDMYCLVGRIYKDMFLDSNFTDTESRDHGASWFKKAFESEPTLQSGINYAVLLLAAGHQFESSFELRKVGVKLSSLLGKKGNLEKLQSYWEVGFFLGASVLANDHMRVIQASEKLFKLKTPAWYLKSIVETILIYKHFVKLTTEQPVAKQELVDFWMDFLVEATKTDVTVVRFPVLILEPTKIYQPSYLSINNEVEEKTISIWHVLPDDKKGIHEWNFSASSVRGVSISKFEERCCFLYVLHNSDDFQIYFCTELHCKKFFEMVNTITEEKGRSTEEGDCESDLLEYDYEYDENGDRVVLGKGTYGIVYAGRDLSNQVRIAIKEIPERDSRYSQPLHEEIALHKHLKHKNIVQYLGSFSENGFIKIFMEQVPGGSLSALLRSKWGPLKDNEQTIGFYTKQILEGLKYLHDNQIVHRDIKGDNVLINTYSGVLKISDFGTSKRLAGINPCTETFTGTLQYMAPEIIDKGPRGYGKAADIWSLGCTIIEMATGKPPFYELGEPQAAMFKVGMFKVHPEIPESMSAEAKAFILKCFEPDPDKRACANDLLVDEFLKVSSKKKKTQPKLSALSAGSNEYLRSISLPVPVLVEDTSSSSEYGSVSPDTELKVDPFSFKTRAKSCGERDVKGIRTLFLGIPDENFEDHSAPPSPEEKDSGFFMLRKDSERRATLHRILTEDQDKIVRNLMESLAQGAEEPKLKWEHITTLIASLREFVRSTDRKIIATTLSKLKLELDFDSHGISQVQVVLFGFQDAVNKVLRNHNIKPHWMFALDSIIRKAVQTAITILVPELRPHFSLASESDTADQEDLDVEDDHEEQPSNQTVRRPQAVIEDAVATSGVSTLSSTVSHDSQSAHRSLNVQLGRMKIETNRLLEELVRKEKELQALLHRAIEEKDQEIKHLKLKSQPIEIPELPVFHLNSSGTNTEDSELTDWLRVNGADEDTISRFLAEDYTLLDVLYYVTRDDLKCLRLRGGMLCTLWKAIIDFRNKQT

PKBγ(h) = PKBγ(h) (Homo sapiens, UniProt Q9Y243)
PKBγ(h), sequence (Q9Y243 whole entry): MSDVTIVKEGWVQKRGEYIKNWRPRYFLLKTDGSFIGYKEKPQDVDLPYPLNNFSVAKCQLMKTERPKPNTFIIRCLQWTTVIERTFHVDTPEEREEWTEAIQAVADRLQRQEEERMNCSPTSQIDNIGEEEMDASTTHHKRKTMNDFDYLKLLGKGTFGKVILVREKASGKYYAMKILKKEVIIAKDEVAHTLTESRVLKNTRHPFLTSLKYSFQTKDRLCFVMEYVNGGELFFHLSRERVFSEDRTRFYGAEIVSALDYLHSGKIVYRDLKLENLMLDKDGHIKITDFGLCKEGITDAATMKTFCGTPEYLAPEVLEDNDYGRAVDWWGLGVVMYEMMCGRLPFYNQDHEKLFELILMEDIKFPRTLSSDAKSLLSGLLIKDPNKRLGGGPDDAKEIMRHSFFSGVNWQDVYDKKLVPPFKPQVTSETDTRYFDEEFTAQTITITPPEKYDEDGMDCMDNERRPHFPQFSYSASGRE

DMPK(h) = target: T2, DMPK(h) (Homo sapiens, UniProt Q09013)
T2 sequence (Q09013 1-629): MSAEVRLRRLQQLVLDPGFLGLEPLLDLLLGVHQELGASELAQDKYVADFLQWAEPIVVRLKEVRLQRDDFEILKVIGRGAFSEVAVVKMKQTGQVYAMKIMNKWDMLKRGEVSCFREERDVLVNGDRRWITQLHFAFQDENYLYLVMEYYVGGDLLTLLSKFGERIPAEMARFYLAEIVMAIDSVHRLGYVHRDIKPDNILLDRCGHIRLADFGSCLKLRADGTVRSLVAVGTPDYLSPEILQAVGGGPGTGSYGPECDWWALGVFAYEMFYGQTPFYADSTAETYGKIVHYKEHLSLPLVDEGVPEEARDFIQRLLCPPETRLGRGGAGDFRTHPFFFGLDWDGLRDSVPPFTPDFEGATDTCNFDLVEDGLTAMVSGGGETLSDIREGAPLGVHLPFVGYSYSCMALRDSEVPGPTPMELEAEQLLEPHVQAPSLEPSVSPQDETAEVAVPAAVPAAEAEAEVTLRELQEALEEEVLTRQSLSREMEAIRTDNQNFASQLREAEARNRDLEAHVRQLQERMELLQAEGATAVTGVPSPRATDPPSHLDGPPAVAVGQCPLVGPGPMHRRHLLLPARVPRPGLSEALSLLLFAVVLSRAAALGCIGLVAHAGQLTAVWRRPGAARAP

mTOR(h) = mTOR(h) (Homo sapiens, UniProt P42345)
Fyn(h) = Fyn(h) (Homo sapiens, UniProt P06241)
Fyn(h), sequence (P06241 whole entry): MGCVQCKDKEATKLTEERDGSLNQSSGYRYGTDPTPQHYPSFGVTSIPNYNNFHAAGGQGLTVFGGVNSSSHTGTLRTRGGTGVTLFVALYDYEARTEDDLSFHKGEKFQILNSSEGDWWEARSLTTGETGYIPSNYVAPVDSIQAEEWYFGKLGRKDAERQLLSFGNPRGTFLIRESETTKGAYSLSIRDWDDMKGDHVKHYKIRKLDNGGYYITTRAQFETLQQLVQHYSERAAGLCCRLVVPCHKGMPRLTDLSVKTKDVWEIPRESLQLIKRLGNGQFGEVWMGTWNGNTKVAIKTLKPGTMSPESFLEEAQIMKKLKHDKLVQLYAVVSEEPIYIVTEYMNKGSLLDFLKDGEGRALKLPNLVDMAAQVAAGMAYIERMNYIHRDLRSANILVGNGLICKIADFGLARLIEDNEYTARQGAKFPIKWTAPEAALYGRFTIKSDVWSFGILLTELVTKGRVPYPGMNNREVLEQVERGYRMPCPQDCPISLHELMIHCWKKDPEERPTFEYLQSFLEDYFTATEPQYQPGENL

CDK6/cyclinD3(h) = CDK6/cyclinD3(h) (Homo sapiens, UniProt Q00534)
CDK6/cyclinD3(h), sequence (Q00534 whole entry): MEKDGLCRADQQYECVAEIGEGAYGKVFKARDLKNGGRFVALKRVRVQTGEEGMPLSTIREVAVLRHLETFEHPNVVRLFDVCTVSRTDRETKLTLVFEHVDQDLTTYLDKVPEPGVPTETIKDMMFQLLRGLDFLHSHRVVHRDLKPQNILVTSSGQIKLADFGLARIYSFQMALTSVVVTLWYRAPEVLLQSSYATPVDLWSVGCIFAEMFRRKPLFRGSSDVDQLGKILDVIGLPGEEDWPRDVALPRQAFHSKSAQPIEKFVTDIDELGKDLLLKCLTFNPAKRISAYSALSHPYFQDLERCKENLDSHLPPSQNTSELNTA
CDK6/cyclinD3(h), sequence (P30281 whole entry partner): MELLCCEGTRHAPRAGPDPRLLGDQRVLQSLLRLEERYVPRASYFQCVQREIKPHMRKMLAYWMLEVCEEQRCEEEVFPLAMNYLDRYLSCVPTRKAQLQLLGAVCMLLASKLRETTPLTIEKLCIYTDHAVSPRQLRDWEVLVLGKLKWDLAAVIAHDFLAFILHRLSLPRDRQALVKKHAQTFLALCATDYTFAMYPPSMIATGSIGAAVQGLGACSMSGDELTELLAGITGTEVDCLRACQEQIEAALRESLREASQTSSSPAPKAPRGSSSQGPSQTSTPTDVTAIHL

KDR(h) = KDR(h) (Homo sapiens, UniProt P35968)
KDR(h), sequence (P35968 20-1356): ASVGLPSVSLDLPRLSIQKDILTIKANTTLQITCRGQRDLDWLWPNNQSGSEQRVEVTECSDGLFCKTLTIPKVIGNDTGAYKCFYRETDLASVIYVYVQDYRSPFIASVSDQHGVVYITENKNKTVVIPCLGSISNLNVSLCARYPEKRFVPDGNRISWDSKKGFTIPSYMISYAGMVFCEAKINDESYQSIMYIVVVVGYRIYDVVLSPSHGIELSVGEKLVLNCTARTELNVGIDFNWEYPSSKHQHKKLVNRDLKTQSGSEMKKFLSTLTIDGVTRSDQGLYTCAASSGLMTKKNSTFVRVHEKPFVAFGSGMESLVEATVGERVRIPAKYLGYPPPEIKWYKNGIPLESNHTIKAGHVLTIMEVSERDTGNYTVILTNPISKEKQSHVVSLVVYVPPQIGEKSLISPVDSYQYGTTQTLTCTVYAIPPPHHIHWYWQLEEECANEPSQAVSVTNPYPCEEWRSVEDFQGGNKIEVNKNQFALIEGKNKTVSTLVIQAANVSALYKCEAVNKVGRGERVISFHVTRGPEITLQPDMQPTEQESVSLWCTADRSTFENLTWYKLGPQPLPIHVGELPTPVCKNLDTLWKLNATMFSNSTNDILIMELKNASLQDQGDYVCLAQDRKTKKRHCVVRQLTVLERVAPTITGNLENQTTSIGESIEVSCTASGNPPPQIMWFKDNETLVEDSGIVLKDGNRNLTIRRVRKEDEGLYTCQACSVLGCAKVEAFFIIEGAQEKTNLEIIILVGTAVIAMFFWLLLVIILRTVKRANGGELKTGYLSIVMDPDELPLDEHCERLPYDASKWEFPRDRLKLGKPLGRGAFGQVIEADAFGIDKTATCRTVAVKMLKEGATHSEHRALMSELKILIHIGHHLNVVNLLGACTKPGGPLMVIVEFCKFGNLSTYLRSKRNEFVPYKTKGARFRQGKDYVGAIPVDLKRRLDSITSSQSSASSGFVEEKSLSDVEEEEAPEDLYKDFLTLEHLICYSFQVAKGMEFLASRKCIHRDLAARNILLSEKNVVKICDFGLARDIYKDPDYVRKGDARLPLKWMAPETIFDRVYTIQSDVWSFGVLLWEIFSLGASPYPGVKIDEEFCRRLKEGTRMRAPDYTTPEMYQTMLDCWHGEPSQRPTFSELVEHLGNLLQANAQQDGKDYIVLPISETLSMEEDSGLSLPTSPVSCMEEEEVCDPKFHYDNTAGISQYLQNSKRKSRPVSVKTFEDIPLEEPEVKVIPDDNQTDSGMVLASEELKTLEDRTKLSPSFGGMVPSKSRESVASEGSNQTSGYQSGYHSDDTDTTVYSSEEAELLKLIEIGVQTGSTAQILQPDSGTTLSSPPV

Ret(h) = Ret(h) (Homo sapiens, UniProt P07949)
PKCα(h) = PKCα(h) (Homo sapiens, UniProt P17252)
cSRC(h) = cSRC(h) (Homo sapiens, UniProt P12931)
PAK2(h) = PAK2(h) (Homo sapiens, UniProt Q13177)
PAK2(h), sequence (Q13177 whole entry): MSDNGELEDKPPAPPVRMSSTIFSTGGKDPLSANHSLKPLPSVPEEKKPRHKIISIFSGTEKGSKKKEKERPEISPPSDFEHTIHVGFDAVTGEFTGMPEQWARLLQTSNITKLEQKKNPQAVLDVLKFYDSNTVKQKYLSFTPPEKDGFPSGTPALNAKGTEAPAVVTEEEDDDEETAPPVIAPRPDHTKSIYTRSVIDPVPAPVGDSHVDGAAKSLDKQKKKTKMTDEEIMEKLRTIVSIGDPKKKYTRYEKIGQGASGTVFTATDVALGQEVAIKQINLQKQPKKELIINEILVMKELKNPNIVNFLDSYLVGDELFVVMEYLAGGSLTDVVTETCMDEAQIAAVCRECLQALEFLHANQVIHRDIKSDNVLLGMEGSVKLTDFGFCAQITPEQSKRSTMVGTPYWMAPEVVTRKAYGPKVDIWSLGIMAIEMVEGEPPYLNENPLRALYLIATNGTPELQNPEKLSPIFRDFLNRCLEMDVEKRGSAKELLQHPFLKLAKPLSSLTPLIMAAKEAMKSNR

Axl(h) = Axl(h) (Homo sapiens, UniProt P30530)

## FAKLAARLYRKALARQLGVAA [MMI-0300]
ASK1(h)
  % activity: 80%
PKBγ(h)
  % activity: 20%
DMPK(h)
  % activity: 59%
mTOR(h)
  % activity: 91%
Fyn(h)
  % activity: 74%
CDK6/cyclinD3(h)
  % activity: 86%
KDR(h)
  % activity: 101%
Ret(h)
  % activity: 140%
PKCα(h)
  % activity: 89%
cSRC(h)
  % activity: 26%
PAK2(h)
  % activity: 65%
Axl(h)
  % activity: 52%

## HRRIKAWLKKIKALARQLGVAA [MMI-0500]
ASK1(h)
  % activity: −4%
PKBγ(h)
  % activity: 20%
DMPK(h)
  % activity: 12%
mTOR(h)
  % activity: 135%
Fyn(h)
  % activity: 83%
CDK6/cyclinD3(h)
  % activity: 23%
KDR(h)
  % activity: 15%
Ret(h)
  % activity: 174%
PKCα(h)
  % activity: 3%
cSRC(h)
  % activity: 30%
PAK2(h)
  % activity: 44%
Axl(h)
  % activity: 12%

## KAFAKLAARLYRKALARQLGVAA [MMI-0400]
ASK1(h)
  % activity: 69%
PKBγ(h)
  % activity: 41%
DMPK(h)
  % activity: 54%
mTOR(h)
  % activity: 93%
Fyn(h)
  % activity: 54%
CDK6/cyclinD3(h)
  % activity: 85%
KDR(h)
  % activity: 94%
Ret(h)
  % activity: 145%
PKCα(h)
  % activity: 86%
cSRC(h)
  % activity: 14%
PAK2(h)
  % activity: 59%
Axl(h)
  % activity: 41%

## YARAAARQARAKALNRQLGVA [MMI-0200]
ASK1(h)
  % activity: 101%
DMPK(h)
  % activity: 66%
mTOR(h)
  % activity: 110%
Fyn(h)
  % activity: 75%
CDK6/cyclinD3(h)
  % activity: 100%
KDR(h)
  % activity: 110%
Ret(h)
  % activity: 96%
PKCα(h)
  % activity: 100%
cSRC(h)
  % activity: 32%
PAK2(h)
  % activity: 69%
Axl(h)
  % activity: 99%
